Source: PMC6159526

T1: HicB109-150 (C-terminal DNA-binding domain) (Streptococcus pneumoniae, UniProt A0A0H2URC7 109-150)
T1 chain: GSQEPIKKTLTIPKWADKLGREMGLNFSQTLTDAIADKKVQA

B1: hicBA promoter DNA, 28 bp (dsDNA)
DNA 1: TAATAGAATAATAAGTATCACTCCTTTA
DNA 2: TAAAGGAGTGATACTTATTATTCTATTA
B2: Pal-I (dsDNA)
DNA 1: TCTGTAACGTTCGATACAGA
DNA 2: TCTGTATCGAACGTTACAGA

Key:
[1] = target: T1, HicB109-150 (C-terminal DNA-binding …); experiment: NMR titration
[2] = target: T2, HicB antitoxin;HicA toxin (Streptococcus pneumoniae;Streptococcus …, UniProt A0A0H2URC7;A0A0H2URA5 1-150;1-68, |); experiment: ITC
HicB antitoxin [3] = target: T3, HicB antitoxin (Streptococcus pneumoniae, UniProt A0A0H2URC7 1-150); experiment: ITC
HicB antitoxin [4] = target: T3, HicB antitoxin; experiment: EMSA
[5] = target: T2, HicB antitoxin;HicA toxin; experiment: EMSA

| Binder | Kd [1] [µM] | Kd [2] [µM] | Kd (HicB antitoxin [3]) [µM] | binding result (HicB antitoxin [4]) | binding result [5] |
| --- | --- | --- | --- | --- | --- |
| B1 | 4.5 ± 1.1 | 4.2 ± 0.4 | 8.8 ± 1.1 | – | – |
| B2 | – | – | – | no binding | no binding |
